{
  "source": "IntAct's records for PubMed 17314515",
  "parents": {"B1": {"name": "Protein Vpr (Human immunodeficiency virus type 1 group M subtype B (isolate BRU/LAI)), P05928 (parent)", "chain": "MEQAPEDQGPQREPHNEWTLELLEELKNEAVRHFPRIWLHGLGQHIYETYGDTWAGVEAIIRILQQLLFIHFRIGCRHSRIGVTQQRRARNGASRS"}, "B2": {"name": "Protein Vpx (Simian immunodeficiency virus (isolate PBj14/BCL-3)), P19508 (parent)", "chain": "MSDPRERIPPGNSGEETIGEAFDWLDRTVEEINRAAVNHLPRELIFQVWRRSWEYWHDEMGMSVSYTKYRYLCLIQKAMFMHCKKGCRCLGGEHGAGGWRPGPPPPPPPGLA"}},
  "data": [
    {"variants_of": "B1", "details": "with DCAF1, Q9Y4B6-3", "values": [
      {"variant": "Q65A", "effect of a mutation on the interaction": "disrupting interaction"},
      {"variant": "MEQAPEDQGPQREPHNEWTLELLEELKNEAVRHFPRIWLHGLGQHIYETYGDTWAGVEAIIRILRQLLFIHFRIGCRHSRIGVTQQRRARNGASRS", "note": "[Q65R]", "effect of a mutation on the interaction": "disrupting interaction"}
    ]},
    {"variants_of": "B2", "details": "with DCAF1, Q9Y4B6-3", "values": [
      {"variant": "MSDPRERIPPGNSGEETIGEAFDWLDRTVEEINRAAVNHLPRELIFQVWRRSWEYWHDEMGMSVSYTKYRYLCLIRKAMFMHCKKGCRCLGGEHGAGGWRPGPPPPPPPGLA", "note": "[Q76R]", "effect of a mutation on the interaction": "disrupting interaction"}
    ]}
  ]
}
